He/Con_1a and He/Con_2b data for nine molecules are collected here from patent publication US20150344570A1 (published 2015).

Experiment [1] deals with T1, FcγRIa extracellular domain with C-terminal His tag (human, UniProt P12314 16-292).
T1 construct: extracellular domain; Expressed in FreeStyle293 cells; analyte in the SPR assay; also called FcgRI; 1a
The experiment is described as follows: SPR (Biacore), relative binding, HeCon Ab = 100.

Experiment [2] concerns the target T2, FcγRIIb extracellular domain with C-terminal His tag (human, UniProt P31994 43-217).
T2 construct: extracellular domain; Expressed in FreeStyle293 cells; analyte in the SPR assay; also called FcgRIIb; 2b
T2 sequence (looked up): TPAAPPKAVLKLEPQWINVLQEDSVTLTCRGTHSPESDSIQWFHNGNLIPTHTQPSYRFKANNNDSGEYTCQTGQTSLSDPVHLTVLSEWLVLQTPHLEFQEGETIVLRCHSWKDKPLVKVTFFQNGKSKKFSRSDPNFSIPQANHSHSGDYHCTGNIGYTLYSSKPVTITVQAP
The experiment is described as follows: SPR (Biacore), relative binding, HeCon Ab = 100.

T1 sequence (P12314 16-292): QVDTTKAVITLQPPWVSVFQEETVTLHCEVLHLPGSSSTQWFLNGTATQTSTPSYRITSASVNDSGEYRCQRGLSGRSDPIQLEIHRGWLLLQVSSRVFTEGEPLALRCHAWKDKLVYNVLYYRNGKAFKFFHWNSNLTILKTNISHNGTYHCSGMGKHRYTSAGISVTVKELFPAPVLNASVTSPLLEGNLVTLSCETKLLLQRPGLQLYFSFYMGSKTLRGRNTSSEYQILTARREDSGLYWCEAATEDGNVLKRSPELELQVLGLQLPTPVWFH

B1: GpH7-A5/GpH7-B3 variant E269_04F/GpL16-k0 (He Ab) (antibody, human IgG1, kappa)
heavy 1: not shown
heavy 2: not shown
light: DIVMTQSPLSLPVTPGEPASISCQASESLVHSNRNTYLHWYLQKPGQSPQLLIYKVSNRFSGVPDRFSGSGSGTDFTLKISRVEAEDVGVYYCSQNTHVPPTFGQGTKVEIERTVAAPSVFIFPPSDEQLKSGTASVVCLLNNFYPREAKVQWKVDNALQSGNSQESVTEQDSKDSTYSLSSTLTLSKADYEKHKVYACEVTHQGLSSPVTKSFNRGEC
notes: He Ab: mutation in one H chain only
In the case of B1, in experiment [1], the He/Con_1a was 103 % of HeCon Ab (=100). Further, the He/Con_2b in experiment [2] is 45 % of HeCon Ab (=100).

B2: GpH7-A5/GpH7-B3 variant G236_02A/GpL16-k0 (He Ab) (antibody, human IgG1, kappa)
heavy 1: not shown
heavy 2: not shown
light: DIVMTQSPLSLPVTPGEPASISCQASESLVHSNRNTYLHWYLQKPGQSPQLLIYKVSNRFSGVPDRFSGSGSGTDFTLKISRVEAEDVGVYYCSQNTHVPPTFGQGTKVEIERTVAAPSVFIFPPSDEQLKSGTASVVCLLNNFYPREAKVQWKVDNALQSGNSQESVTEQDSKDSTYSLSSTLTLSKADYEKHKVYACEVTHQGLSSPVTKSFNRGEC
notes: as for B1
On to B2, for which the He/Con_1a in experiment [1] was 100 % of HeCon Ab (=100). Moreover, the He/Con_2b in experiment [2] is 96.5 % of HeCon Ab (=100).

B3: GpH7-A5/GpH7-B3 variant E269_19Q/GpL16-k0 (He Ab) (antibody, human IgG1, kappa)
heavy 1: not shown
heavy 2: not shown
light: DIVMTQSPLSLPVTPGEPASISCQASESLVHSNRNTYLHWYLQKPGQSPQLLIYKVSNRFSGVPDRFSGSGSGTDFTLKISRVEAEDVGVYYCSQNTHVPPTFGQGTKVEIERTVAAPSVFIFPPSDEQLKSGTASVVCLLNNFYPREAKVQWKVDNALQSGNSQESVTEQDSKDSTYSLSSTLTLSKADYEKHKVYACEVTHQGLSSPVTKSFNRGEC
notes: as for B1
Take B3: the He/Con_1a in experiment [1] was 105 % of HeCon Ab (=100). The He/Con_2b in experiment [2] was 44.3 % of HeCon Ab (=100).

B4: GpH7-A5/GpH7-B3 variant E269_07I/GpL16-k0 (He Ab) (antibody, human IgG1, kappa)
heavy 1: not shown
heavy 2: not shown
light: DIVMTQSPLSLPVTPGEPASISCQASESLVHSNRNTYLHWYLQKPGQSPQLLIYKVSNRFSGVPDRFSGSGSGTDFTLKISRVEAEDVGVYYCSQNTHVPPTFGQGTKVEIERTVAAPSVFIFPPSDEQLKSGTASVVCLLNNFYPREAKVQWKVDNALQSGNSQESVTEQDSKDSTYSLSSTLTLSKADYEKHKVYACEVTHQGLSSPVTKSFNRGEC
notes: as for B1
Regarding B4, the He/Con_1a in experiment [1] was 103 % of HeCon Ab (=100). In experiment [2], the He/Con_2b is 43.9 % of HeCon Ab (=100).

B5: GpH7-A5/GpH7-B3 variant E269_18N/GpL16-k0 (He Ab) (antibody, human IgG1, kappa)
heavy 1: not shown
heavy 2: not shown
light: DIVMTQSPLSLPVTPGEPASISCQASESLVHSNRNTYLHWYLQKPGQSPQLLIYKVSNRFSGVPDRFSGSGSGTDFTLKISRVEAEDVGVYYCSQNTHVPPTFGQGTKVEIERTVAAPSVFIFPPSDEQLKSGTASVVCLLNNFYPREAKVQWKVDNALQSGNSQESVTEQDSKDSTYSLSSTLTLSKADYEKHKVYACEVTHQGLSSPVTKSFNRGEC
notes: as for B1
As to B5, the He/Con_1a in experiment [1] was 102 % of HeCon Ab (=100). Besides, the He/Con_2b in experiment [2] was 44.8 % of HeCon Ab (=100).

B6: GpH7-A5/GpH7-B3 variant E269_13S/GpL16-k0 (He Ab) (antibody, human IgG1, kappa)
heavy 1: not shown
heavy 2: not shown
light: DIVMTQSPLSLPVTPGEPASISCQASESLVHSNRNTYLHWYLQKPGQSPQLLIYKVSNRFSGVPDRFSGSGSGTDFTLKISRVEAEDVGVYYCSQNTHVPPTFGQGTKVEIERTVAAPSVFIFPPSDEQLKSGTASVVCLLNNFYPREAKVQWKVDNALQSGNSQESVTEQDSKDSTYSLSSTLTLSKADYEKHKVYACEVTHQGLSSPVTKSFNRGEC
notes: as for B1
On to B6, for which the He/Con_1a in experiment [1] was 103 % of HeCon Ab (=100). The He/Con_2b in experiment [2] is 47.8 % of HeCon Ab (=100).

B7: GpH7-A5/GpH7-B3 variant E269_14T/GpL16-k0 (He Ab) (antibody, human IgG1, kappa)
heavy 1: not shown
heavy 2: not shown
light: DIVMTQSPLSLPVTPGEPASISCQASESLVHSNRNTYLHWYLQKPGQSPQLLIYKVSNRFSGVPDRFSGSGSGTDFTLKISRVEAEDVGVYYCSQNTHVPPTFGQGTKVEIERTVAAPSVFIFPPSDEQLKSGTASVVCLLNNFYPREAKVQWKVDNALQSGNSQESVTEQDSKDSTYSLSSTLTLSKADYEKHKVYACEVTHQGLSSPVTKSFNRGEC
notes: as for B1
B7: the He/Con_1a in experiment [1] was 106 % of HeCon Ab (=100). In experiment [2], the He/Con_2b was 50.6 % of HeCon Ab (=100).

B8: GpH7-A5/GpH7-B3 variant H268_04F/GpL16-k0 (He Ab) (antibody, human IgG1, kappa)
heavy 1: not shown
heavy 2: not shown
light: DIVMTQSPLSLPVTPGEPASISCQASESLVHSNRNTYLHWYLQKPGQSPQLLIYKVSNRFSGVPDRFSGSGSGTDFTLKISRVEAEDVGVYYCSQNTHVPPTFGQGTKVEIERTVAAPSVFIFPPSDEQLKSGTASVVCLLNNFYPREAKVQWKVDNALQSGNSQESVTEQDSKDSTYSLSSTLTLSKADYEKHKVYACEVTHQGLSSPVTKSFNRGEC
notes: as for B1
Turning to B8, in experiment [1], the He/Con_1a is 106 % of HeCon Ab (=100). The He/Con_2b in experiment [2] is 89.6 % of HeCon Ab (=100).

B9: GpH7-A5/GpH7-B3 variant G236_20W/GpL16-k0 (He Ab) (antibody, human IgG1, kappa)
heavy 1: not shown
heavy 2: not shown
light: DIVMTQSPLSLPVTPGEPASISCQASESLVHSNRNTYLHWYLQKPGQSPQLLIYKVSNRFSGVPDRFSGSGSGTDFTLKISRVEAEDVGVYYCSQNTHVPPTFGQGTKVEIERTVAAPSVFIFPPSDEQLKSGTASVVCLLNNFYPREAKVQWKVDNALQSGNSQESVTEQDSKDSTYSLSSTLTLSKADYEKHKVYACEVTHQGLSSPVTKSFNRGEC
notes: as for B1
As for B9, the He/Con_1a in experiment [1] is 105 % of HeCon Ab (=100). The He/Con_2b in experiment [2] was 58.2 % of HeCon Ab (=100).
